Test results from paper PMC8163506, “A novel ATP dependent dimethylsulfoniopropionate lyase in bacteria that releases dimethyl sulfide and acryloyl-CoA” (eLife, 2021).

How the values were obtained:
Assay in all cases: DMS production by GC, nonlinear fit of initial rates
Assay type in all cases: biochemical, Psychrobacter sp.
[1] = substrate: C[S+](C)CCC(=O)[O-]; details: co-substrates ATP and CoA, pH 8.5, 40 °C
[2] = substrate: CC(C)(COP(=O)(O)OP(=O)(O)OC[C@H]1O[C@@H](n2cnc3c(N)ncnc32)[C@H](O)[C@@H]1OP(=O)(O)O)[C@@H](O)C(=O)NCCC(=O)NCCS; details: co-substrates DMSP and ATP, pH 8.5, 40 °C
[3] = substrate: Nc1ncnc2c1ncn2[C@@H]1O[C@H](COP(=O)(O)OP(=O)(O)OP(=O)(O)O)[C@@H](O)[C@H]1O; details: co-substrates DMSP and CoA, pH 8.5, 40 °C

B1: DddX (Psychrobacter sp.) (protein)
chain: LTGQIIEYTIKIQTIYTGNFKHKNGFLKMIERGIAMKKENLKILAKKAQTIAIVGANYRFATRVLLENLDKMDFTGTIYLVNPRYENIDGVRCYQSLLEIEDTIDVVVGLVNPQLMIQVASNASKINAKVLVIPGGGYGESGVEGQNIQNAILERAADSGMRIVGPNCMGYLNMHAQFTPYIGTLHRPLRPIKKGPVSIISQSGSVNDAFIASKLGISKIYSTGNEADVQMHDYLNLLAEDPETSVIILYIEAIRNHLSFLRALDLCSKNKKPVIAIKVGRTIKSAAVANAHSGALAGDYEIEKLFLEGHGVLFVEDIDQAVAVALLLSQPYLPTVNTVAALTVSGGQAGILLDLAEDYGVDFPDFSAVTNYEIASKLPELGGLSNPLDIWGKSSKDFSEVSNICLSSIVKDADIGIITVAIDAPIGQGDHEFDFTSIPAKDLASLRGNSDKPFLYFSHIQTEFDPRVESILDEAGIAVIQGSRNALVACRALFKYKEFLEKNNHTPIYSVEDLSIQKGLKLLHDNEGRKLLDESGFVSPREQVVTSLQEGVDYAESIGYPVVLKAQGLAHKTDVGGVALNIKSAAKLKKAWGKMEHLNSPYYLIQEMVTDGFETILAYRTDMNYGPVVIFGLGGIYTELFNEVVLAVPPITHKKAEQMVKSIPMLWKSIEGYRGNPALDLEALTASIVQMGETAMEKYEEIVEFEINPLSVRVKGVVALDVLASVKTTAAKEADAEEADVKKCSELV
notes: full length (2247 bp gene), pET-22b, C-terminal His tag, E. coli BL21(DE3); dimer in solution
Km [1]: 400 µM
kcat [1]: 0.7 s⁻¹
Km [2]: 400 µM
Km [3]: 2500 µM
